Results published in article PMC6695210, “Bipartite interface of the measles virus phosphoprotein X domain with the large polymerase protein regulates viral polymerase dynamics” (PLoS Pathogens, 2019).

B1: MeV phosphoprotein (P), wild type [measles virus (strain IC-B)] / MeV L_(1708), C-terminally truncated large polymerase protein lacking the methyltransferase domain [measles virus (strain IC-B)] (parent complex)
chain 1: MAEEQARHVKNGLECIRALKAEPIGSLAVEEAMAAWSEISDNPGQDRATCKEEEAGSSGLSKPCLSAIGSTEGGAPRIRGQGSGESDDDAETLGIPSRNLQASSTGLQCYHVYDHSGEAVKGIQDADSIMVQSGLDGDSTLSGGDDESENSDVDIGEPDTEGYAITDRGSAPISMGFRASDVETAEGGEIHELLKLQSRGNNFPKLGKTLNVPPPPNPSRASTSETPIKKGTDARLASFGTEIASLLTGGATQCARKSPSEPSGPGAPAGNVPECVSNAALIQEWTPESGTTISPRSQNNEEGGDYYDDELFSDVQDIKTALAKIHEDNQKIISKLESLLLLKGEVESIKKQINRQNISISTLEGHLSSIMIAIPGLGKDPNDPTADVELNPDLKPIIGRDSGRALAEVLKKPVASRQLQGMTNGRTSSRGQLLKEFQLKPIGKKVSSAVGFVPDTGPASRSVIRSIIKSSRLEEDRKRYLMTLLDDIKGANDLAKFHQMLMKIIMK
chain 2: MDSLSVNQILYPEVHLDSPIVTNKIVAILEYARVPHAYSLEDPTLCQNIKHRLKNGFSNQMIINNVEVGNVIKSKLRSYPAHSHIPYPNCNQDLFNIEDKESTRKIRELLKKGNSLYSKVSDKVFQCLRDTNSRLGLGSELREDIKEKIINLGVYMHSSQWFEPFLFWFTVKTEMRSVIKSQTHTCHRRRHTPVFFTGSSVELLISRDLVAIISKESQHVYYLTFELVLMYCDVIEGRLMTETAMTIDARYAELLGRVRYMWKLIDGFFPALGNPTYQIVAMLEPLSLAYLQLRDITVELRGAFLNHCFTEIHDVLDQNGFSDEGTYHELIEALDYIFITDDIHLTGEIFSFFRSFGHPRLEAVTAAENVRKYMNQPKVIVYETLMKGHAIFCGIIINGYRDRHGGSWPPLTLPLHAADTIRNAQASGEGLTHEQCVDNWKSFAGVRFGCFMPLSLDSDLTMYLKDKALAALQREWDSVYPKEFLRYDPPKGTGSRRLVDVFLNDSSFDPYDMIMYVVSGAYLHDPEFNLSYSLKEKEIKETGRLFAKMTYKMRACQVIAENLISNGIGKYFKDNGMAKDEHDLTKALHTLAVSGVPKDLKESHRGGPVLKTYSRSPVHTSTRNVKAEKGFVGFPHVIRQNQDTDHPENIETYETVSAFITTDLKKYCLNWRYETISLFAQRLNEIYGLPSFFQWLHKRLETSVLYVSDPHCPPDLDAHVPLCKVPNDQIFIKYPMGGIEGYCQKLWTISTIPYLYLAAYESGVRIASLVQGDNQTIAVTKRVPSTWPYNLKKREAARVTRDYFVILRQRLHDIGHHLKANETIVSSHFFVYSKGIYYDGLLVSQSLKSIARCVFWSETIVDETRAACSNIATTMAKSIERGYDRYLAYSLNVLKVIQQILISLGFTINSTMTRDVVIPLLTNNDLLIRMALLPAPIGGMNYLNMSRLFVRNIGDPVTSSIADLKRMILASLMPEETLHQVMTQQPGDSSFLDWASDPYSANLVCVQSITRLLKNITARFVLIHSPNPMLKGLFHDDSKEEDERLAAFLMDRHIIVPRAAHEILDHSVTGARESIAGMLDTTKGLIRASMRKGGLTSRVITRLSNYDYEQFRAGMVLLTGRKRNVLIDKESCSVQLARALRSHMWARLARGRPIYGLEVPDVLESMRGHLIRRHETCVICECGSVNYGWFFVPSGCQLDDIDKETSSLRVPYIGSTTDERTDMKLAFVRAPSRSLRSAVRIATVYSWAYGDDDSSWNEAWLLARQRANVSLEELRVITPISTSTNLAHRLRDRSTQVKYSGTSLVRVARYTTISNDNLSFVISDKKVDTNFIYQQGMLLGLGVLETLFRLEKDTGSSNTVLHLHVETDCCVIPMIDHPRIPSSRKLELRAELCTNPLIYDNAPLIDRDATRLYTQSHRRHLVEFVTWSTPQLYHILAKSTALSMIDLVTKFEKDHMNEISALIGDDDINSFITEFLLIEPRLFTIYLGQCAAINWAFDVHYHRPSGKYQMGELLSSFLSRMSKGVFKVLVNALSHPKIYKKFWHCGIIEPIHGPSLDAQNLHTTVCNMVYTCYMTYLDLLLNEELEEFTFLLCESDEDVVPDRFDNIQAKHLCVLADLYCQPGTCPPIRGLRPVEKCAVLTDHIKAEARLSPAGSSWNINPIIVDHYSCSLTYLRRGSIKQIRLRVDPGFIFDALAEVNVSQPKVGSN

Variants of: B1
Assay: co-immunoprecipitation (IP anti-HA of P, immunoblot of L anti-FLAG, densitometry); lysates of transiently transfected cells, lysed 24 hours after transfection; IP at 4°C; parent: 100; read off a plot

| Variant | percent of parent |
| --- | --- |
| chain 1 P396A, chain 1 I397A, chain 1 I398A, chain 1 G399A | ~22 % of wild type P |
| chain 1 K440A, chain 1 P441A, chain 1 I442A, chain 1 G443A | ~75 % of wild type P |
| chain 1 L377A, chain 1 G378A, chain 1 K379A, chain 1 D380A | ~78 % of wild type P |
| chain 1 R404A, chain 1 L406A | ~14 % of wild type P |
| chain 1 D383A, chain 1 P384A, chain 1 T385A | ~55 % of wild type P |
| chain 1 D401A, chain 1 S402A, chain 1 G403A, chain 1 R404A | ~19 % of wild type P |
| chain 1 E408A, chain 1 V409A, chain 1 L410A | ~30 % of wild type P |
| chain 1 G431A, chain 1 Q432A, chain 1 L433A, chain 1 L434A | ~85 % of wild type P |
| chain 1 S447A, chain 1 S448A, chain 1 V450A | ~92 % of wild type P |

Variants of: B1
Assay: as above
Remark: another data set of the same source

| Variant | percent of parent |
| --- | --- |
| chain 1 E364A | ~44 % of wild type P |
| chain 1 L363A | ~38 % of wild type P |
| chain 1 S361A | ~85 % of wild type P |
| chain 1 L363A, chain 1 E364A | ~20 % of wild type P |
| chain 1 S361A, chain 1 T362A | ~95 % of wild type P |

Variants of: B1
Assay: as above
Remark: another data set of the same source

| Variant | percent of parent |
| --- | --- |
| chain 1 G365A, chain 1 H366A, chain 1 L367A, chain 1 S368A | ~12 % of wild type P |
| chain 1 S369A, chain 1 I370A, chain 1 M371A, chain 1 I372A | ~14 % of wild type P |
| chain 1 I374A, chain 1 P375A, chain 1 G376A, chain 1 L377A | ~9 % of wild type P |
| chain 1 S361A, chain 1 T362A, chain 1 L363A, chain 1 E364A | ~3 % of wild type P |

Variants of: B1
Assay: as above
Remark: another data set of the same source

| Variant | percent of parent |
| --- | --- |
| chain 1 D486R | ~130 % of wild type P |
| chain 1 R479E | ~82 % of wild type P |
| chain 1 K469E | ~75 % of wild type P |
| chain 1 T483R | ~85 % of wild type P |
| chain 1 R465E | ~62 % of wild type P |
| chain 1 D493K | ~150 % of wild type P |
| chain 1 S462R | ~75 % of wild type P |
| chain 1 F497D | ~120 % of wild type P |

Variants of: B1
Assay: as above
Remark: another data set of the same source

| Variant | percent of parent |
| --- | --- |
| chain 1 V463R | ~5 % of wild type P |
| chain 1 A495R | ~78 % of wild type P |
| chain 1 A491R | ~120 % of wild type P |
| chain 1 S470R | ~65 % of wild type P |
| chain 1 H498E | ~18 % of wild type P |
| chain 1 S466R | ~20 % of wild type P |
| chain 1 M502R | ~120 % of wild type P |
